Changes are numbered by the printed parent chain.
B1: anti-Kv10.1 nanobody VHH-C4 (VHH)
VHH: RLLLVQSGGGLVQAGGSLRLSCAASGRTFSNYAMYWFRQTPGKDREFVASISYSGTFTDYAGSVKGRFTISRDNAKNTLYLQMNSLRPEDTAVYYCSLDRHYWGPGTQVTVSS
notes: Short CDR3 (six residues); His tag comes from the phage display vector; The preparation used for SPR is not described; source: E. coli TG1TR, culture supernatants (ELISA)
B2: anti-Kv10.1 nanobody VHH-D9 (VHH)
VHH: B1 VHH with R1Q, L2V, L3Q, T78R, R87K, H101L, P105Q
notes: a model in PDB format is also in the Supplementary Information; Short CDR3 (six residues); His tag comes from the phage display vector; The preparation used for SPR is not described; source: E. coli TG1TR, culture supernatants (ELISA)
B3: E12 (VHH)
VHH: EVQLVESGGGLVQAGGSLRLSCTASGRTFSSYIFAWFRQAPGEERKFVAGITGNGGTGYSNSVKGRFTISRDNAKNTVLLQMNNLKPDDTAVYYCAAHSRSSYYYRGPDLYDYWGQGTQVTVSS
B4: anti-Kv10.1 nanobody F6 (VHH)
VHH: B3 VHH with E1Q, E6Q, S30G, F34L, A40T, N61D, D88E, R106K
notes: From a phage display library of a llama immunised with h1x; His tag comes from the phage display vector; source: E. coli TG1TR, culture supernatants (ELISA)
B5: anti-Kv10.1 nanobody G4 (VHH)
VHH: B3 VHH with E1Q, E6Q, L18R, F34L, A35G, G50A, S60A, N61D, N84S, D88E
notes: as for B4
B6: anti-Kv10.1 nanobody A12 (VHH)
VHH: B3 VHH with E1R, V2C, Q3K, V5Q, S25A, F34L, G56E, D88E, S102T
notes: as for B4
B7: anti-Kv10.1 nanobody G1 (VHH)
VHH: VQLVEVWGRIGAKRGGSLRLSCTAAGRTFSSYILAWFRQAPGEERKFVAGITGNGETGYSNSVKGRFTISRDNAKNTVLLQMNNLKPEDTAVYYCAAHSRSIYYYRGPDLYDYWGQGTQVTVSS
notes: as for B4
B8: anti-Kv10.1 nanobody F5 (VHH)
VHH: QVQLVQSGGGLVQAGGSLRLSCAASGRTFENYIMAWFRQAPGEERKFVAAITGNGGTGYADSVKGRFTISRDNAKNTVLLQMNSLKPEDTAVYYCAAHSRSSYYYKGPDLYDYWGQGTQVTVSS
notes: as for B4
B9: h1x antigen (E3-S5-pore segment fused to the C-terminal coiled coil domain of Kv10.1 and to thioredoxin) (domain or fragment, human)
chain: IGDYEIFDEDTKTIRNNSWLYQLAMDIGTPYQFNGSGSGKWEGGPSKNSVYISSLYFTMTSLTSVGFGNIAPSTDIEK
notes: Kv10.1 voltage-gated potassium channel, E3 segment (extracellular linker between S5 and S6 transmembrane segments, extending to the pore loop); numbers count on: Homo sapiens Kv10.1, isoform 1 (UniProt O95259-2); Kv10.1 voltage-gated potassium channel, C-terminal tetramerizing coiled-coil (C-terminal assembly domain); The coiled coil was added with the aim to induce tetramerization; the …
B10: G10 (VHH)
VHH: EVQLVESGGGLVQPGGSLRLSCTAAGRTFSTYILAWFRQAPGEERKFVAGITGNGETGYSNSVKGRFTIARDNAKNTVFLQMNNLKPEDTAVYYCAAHSRSTYYYKGPDLYDYGQGTQVTVSS

How the values were obtained:
[1] = target: B9; test: SPR; recombinant antigen h1x immobilised on the chip; serial dilution of nanobody as analyte (D9 3.12 nM to 200 nM, C4 25 nM to 400 nM); 1:1 Langmuir model; conditions: both partners purified
[2] = target: B9; test: ELISA; plates coated overnight with 500 ng h1x in TBS, blocked with 2% BSA; VHHs (E. coli culture supernatants) incubated 2 h at different concentrations; detected by mouse anti-His antibody and peroxidase-conjugated anti-mouse; apparent affinities; conditions: one partner purified
[3] = target: B9; test: as above; conditions: one partner purified; remark: listed apart in the source
[4] = target: B9
VHH-D9-scTRAIL = target: T1, VHH-D9-scTRAIL (llama (Lama glama) | ); test: ELISA; plates coated with 500 ng h1x or h2x, blocked with 3% BSA; Ab-scTRAIL constructs (CHO-K1 supernatants, not further purified) incubated 2 h at different concentrations; detected with the anti-TRAIL conjugate of the Quantikine TRAIL ELISA kit; apparent affinities; conditions: one partner purified
T1 construct: nanobody D9, as the VHH of m4 without its His tag; TRAIL (Tumor Necrosis Factor-Related Apoptosis-Inducing Ligand) fragment, first of three in single-chain TRAIL; short peptide linker between TRAIL fragments; TRAIL fragment, second of three in single-chain TRAIL; TRAIL fragment, third of three in single-chain TRAIL; a linker between VHH and scTRAIL is not described; Vector tags were eliminated by …

B1
Kd [1]: 1800 nM
Kd [2]: 87 nM
Kd [3]: 81 nM

B2
Kd [1]: 78 nM
Kd [2]: 11 nM

B3
binding result [4]: binds

B4
Kd [2]: 177 nM

B5
Kd [2]: 943 nM

B6
Kd [2]: 343 nM

B7
Kd [2]: 431 nM

B8
Kd [2]: 470 nM

B9
Kd (VHH-D9-scTRAIL): 0.029 nM

B10
binding result [4]: binds
